Test results as given in publication PMC4338524 (Nature communications, 2014).

T1: E. coli MinCD copolymeric filaments (pre-formed) (E. coli, UniProt P18196;P0AEZ3)
T1 sequence 1: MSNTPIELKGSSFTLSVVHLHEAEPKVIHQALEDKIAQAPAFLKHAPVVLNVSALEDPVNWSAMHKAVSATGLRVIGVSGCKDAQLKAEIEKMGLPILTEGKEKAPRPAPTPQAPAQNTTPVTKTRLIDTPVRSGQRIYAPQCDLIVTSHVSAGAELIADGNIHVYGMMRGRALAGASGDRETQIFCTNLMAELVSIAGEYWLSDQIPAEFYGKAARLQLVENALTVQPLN
T1 sequence 2: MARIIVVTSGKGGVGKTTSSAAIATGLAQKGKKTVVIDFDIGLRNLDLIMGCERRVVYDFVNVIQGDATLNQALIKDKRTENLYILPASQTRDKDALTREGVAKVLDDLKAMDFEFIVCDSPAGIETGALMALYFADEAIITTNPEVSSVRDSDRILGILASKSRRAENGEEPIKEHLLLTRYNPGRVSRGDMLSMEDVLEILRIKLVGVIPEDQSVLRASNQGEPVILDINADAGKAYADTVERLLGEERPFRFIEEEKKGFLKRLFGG

T2: E. coli MinD, full-length, untagged (E. coli, UniProt P0AEZ3 1-270)
T2 sequence: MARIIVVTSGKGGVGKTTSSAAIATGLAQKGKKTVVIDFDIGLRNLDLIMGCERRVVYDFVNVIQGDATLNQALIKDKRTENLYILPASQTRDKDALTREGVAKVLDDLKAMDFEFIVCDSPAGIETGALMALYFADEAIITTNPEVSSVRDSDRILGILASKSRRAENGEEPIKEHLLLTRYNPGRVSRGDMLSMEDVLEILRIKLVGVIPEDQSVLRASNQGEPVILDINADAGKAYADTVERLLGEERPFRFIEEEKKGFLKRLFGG


Columns and labels:
[1] = biological target: T1, E. coli MinCD copolymeric filaments …; test: electron cryotomography of decorated liposomes
co-sedimentation = biological target: the molecule itself; test: co-sedimentation
[2] = biological target: T2, E. coli MinD, full-length, untagged; test: 90° angle light scattering

binding result [1] | binding result [2] | Binder | binding result (co-sedimentation)
binds |  | E. coli FtsZ (natural protein) MFEPMELTNDAVIKVIGVGGGGGNAVEHMVRERIEGVEFFAVNTDAQALRKTAVGQTIQIGSGITKGLGAGANPEVGRNAADEDRDALRAALEGADMVFIAAGMGGGTGTGAAPVVAEVAKDLGILTVAVVTKPFNFEGKKRMAFAEQGITELSKHVDSLITIPNDKLLKVLGRGISLLDAFGAANDVLKGAVQGIAELITRPGLMNVDFADVRTVMSEMGYAMMGSGVASGEDRAEEAAEMAISSPLLEDIDLSGARGVLVNITAGFDLRLDEFETVGNTIRAFASDNATVVIGTSLDPDMNDELRVTVVATGIGMDKRPEITLVTNKQVQQPVMDRYQQHGMAPLTQEQKPVAKVVNDNAPQTAKEPDYLDIPAFLRKQAD | binds
 | binds | E. coli MinE, full length (natural protein) MALLDFFLSRKKNTANIAKERLQIIVAERRRSDAEPHYLPQLRKDILEVICKYVQIDPEMVTVQLEQKDGDISILELNVTLPEAEELK | 
